This series is described as follows: soluble on expression in E. coli; label from the status in PepcDB or PDB records.
For “MDNTNTGLKLFVLDTNILMHDPTAIYHFDEHDIYLPMVVLEELDSHKTGTSELARNVRQTNRMLVELMSNATHDQIVSGLPIPSYINSSNKKCSGRLFFQTDEFDQVVPSTLPGHKVDNTILATALGLQKKYYGKRQVIIISKDINLRIKAGILGIHAEDYYNDQVLDDVNLLHRGLHILDNNFWDSHAKDMGSWQESGKTFYKVSGPLVSQWNPNDCLSTEDDQFQALVKKIDGPNAVVQLIRDYTQPKHSVWGITARNREQNFSLNLLLDPDIDFVSLQGSAGTGKTLLTIAAGLTQVMDQNRYSEILMTRVTIPVGEDIGFLPGTEEEKMTPWMGALMDNLEVLHSSQVGGSFGRGATQDLLQNKIKIRSLNFMRGRTFLNRYIIIDEAQNLTSKQIKTLVTRAGPGSKIICLGDIKQIDTPYLTETTSGLTFAVDRFKSWEHSAHMTLTRGERSRLAFYAAEHL”, the “soluble on expression in E. coli” value is listed as “not soluble”.

For “MGSDKIHHHHHHMELLNSMSKSLDQLLSLVNHSEIASIKATLSKIIEVIHNPESSVMDLKNLIEIDPPLAANVLRRANSAFYGMRRGIHSIMDAIIFIGFDAVKELTLNQKFFELFQKNGVEIHGYSRRVLWEHSIGVALCGKLIYRREFRKNGGDMYTAGLIHDIGIIVEDQFLHAELLSILADKEEHERDLHSAEADVLGYCHEDIGKRLAEDWNFPEELCLVLGEAERPETSEGPRLLLADTLYVANCACQLRKVGFSELGRLDRPAYEDCLNRLRIKERALDFIMDEVNAQIALMKNDGWF”, the “soluble on expression in E. coli” value is “not soluble”.

Turning to “MGSDKIHHHHHHMTENKNEKLGWINGHWGVFKDLKVPINDRGLNFADGIFETILILNGIPQLLDEHLNRWEKSASILEMNSPPSKEWLISLVEDGINQAQLKNINGVIRINWTRGESEQRGIDISKTSLHSFWLEIDSYQPNFESISTIISQTERRNSFSRLSSCKTFSYNQGIQARIEAKNLGFNDALLLNSQGEICCATTANILVKRENNWLTPPSNSGCLPGIMRQRGIELNIIKEALIEATPKDNDEWFLINSLSCRPIQKINKKELKISTNPKEFWLSLLKI”, the “soluble on expression in E. coli” value is given as “not soluble”.

As to “SEASFVQTTMALGLPSKKASSRNVIVERRNLITVCRFSVKTLLEKYTAEPIDDSSEEFVNFAAILEQILSHRFKACAPAGPASWFSSDGQRGFWDYIRLACSKVPNNCVSSIENMENISTARAKGRAWIRVALMEKRMSEYITTALRDNRTTRRFYDSGAIMLREEATVLTGMLIGLSAIDFSFCLKGEVLDGKTPVVIDYTPYLKFTQSYDYLTDEEERHSAESSTSEDNSPEHPYLPLVTDEDSWYNKWHKMEQKFRIVYAQKGYLEELVRLRESQLKDLEAENRRLQLQLEEAAAQNQREKRELEGVILELQEQLPDPPPPPRTGLIPGDHAPLAQGSKELTTSLVNQWPSLSTLHRPEGASNSKLYRRHSFMSTEPLSAEASLSSDSQRLGEAKRDEEPWGPIGSSEPN”, the “soluble on expression in E. coli” value is on record as “not soluble”.

With “MGSDKIHHHHHHMKTLKGPGIFLAQYIGDQAPFNTLENLAQWAAGLGFKALQIPCNHPHIFNLATAADSQTYCDEVKGLLAQHGLTISELSTHLEGQLVAVHPAYDDAFDDFAPPAYRRNPQARQQWAISAIKQAAKASSRLGLNAHATFSGALAWPYFYPWPPRKEALIQEAFKELGRLWTPILDCFDEHGVDVCYELHPGEDLHDGVTFERFLDVVNHHPRANILYDPSHMHLQQMDYLGFIDRYHARIKAFHVKDAEFTPSSKSGVYGGYQSWAERAGRFRSPGDGQIDFGAIFSKLAQYDYDGWAVLEWECCLKDSNCGAKEGAAFIDRHIIPVAQRAFDDFAATSDDRPLVRKMLGLKEEDAE”, the “soluble on expression in E. coli” value was “not soluble”.

Take “MNFIVIGAGNIGSGIAQNLLEDGHEVEIADKSRESLNRIRGRNPKIRTREFDVMDRSAYRMLNDYDASVSALPGSIGMQFLKNVAKMGKIVVDVSYMEEDPYDLNGIAQSAGTIIVPDMGFAPGLTNAIVGYFSADLDQIRNVKIYVGGIPEKPVPPLDYTITWSVEGLIDEYTRPVRIVRNGTEDHVPALSGIERIGVGNYADMEAFYTDGLRSLIRNIKCTGEMFEKTIRYPGHAEKMAAIRDLGYFDRIKVDGCNLTMFEISEQIFMEKLFRPDIQDVVLMKVEVSGTKLGREVTRTAEMQTGYDSSRKRTAMDMATSLPASITAEFLSSNGKITSGIVFPEILGKTQNYFEYLVNNMKKKGINVNISVK”: the “soluble on expression in E. coli” value is “not soluble”.

On to “MTSGKIHNPLNRQHSELRSKNVSLSNGDPFTIALFGVDSNAQRKSENDGERSDTIMLLSINPKKQTTEIVSVPRDTQAEIVGKGTTEKINHAYAYGGPTMAVKSLEKLMNVPIDHYATVDMDGLHDMIDALGGVNVTSNDTFTTKGTNFVKGQSTHVDGDTAMAFIRSRKEEGAGGDFGRQERQQLILQAMANKMTSTSALTHFPSLINQIQKNVKTDLTLNDMNDIRKNYKNANTTVNRHQLEGQGGIQDDGLWYFIPNDDSKQSATEILNNNLQNLEHHHHHH”, for which the “soluble on expression in E. coli” value was “soluble”.

Turning to “GKLDATLRAIVHTAAELVDARYGALGVRGYDHRLVEFVYEGIDEETRHLIGSLPEGRGVLGALIEEPKPIRLDDISRHPASVGFPLHHPPMRTFLGVPVRIRDEVFGNLYLTEKADGQPFSDDDEVLVQALAAAAGIAVDNARLFEESR”, the “soluble on expression in E. coli” value was “soluble”.

Consider “MGSDKIHHHHHHMELHIRLEGRKGLADQLYQQLRDGIDSGHLAAGSQLPPTRLLAEQLGVSRKTVAEAYSRLTYDNLLSGVVGRGTFVTPRHPLRSNESATLPLAGAASLERWQQRATVLSQRQLQAPSRYDFVGGASSKAQFPFDQWRSCLNYALRRSQRHPERQFPAQGLPELREAIAHHIAYSRGVHCSAADLLVCNGAQQALDLIARVLVEPGCQVAMEDPGYPPARQLFLALGARLQSVPVDDEGLCVEQIADGTRLIYVTPSHQFPLGMPMSEPRRHALLARAAELGALIIEDDYDCEFRYHGPASDALQRLDRHGLVAYVGTFSKTLLPELRLGYAVLPPAVLQAACVAKHLSDWHSPTLLQWALARFLGEGHLNKHIRRCHEVYSARRERILARLGGDLAPWFSAIPASAGFHLSALATPGVDVELLANLARKVEVGLYSLAPFFSEAPVRPGLLMGFGAIELLDIDPALDRVRDTLQRLS”, for which the “soluble on expression in E. coli” value is given as “not soluble”.

Regarding “MKYTKGTYSSSAKGHSSNVNLTVNFDSDKIKNVSINVEGETSQRNKDVVSQLSAQILKKQDDSLDAVTGATETSNAVRRALTDCIKQATGDTENQTKTPLKDGTYTETVPSYSLIAPMTGEVTIKNNKIKNIKITSEKDSQTSPWFHVAEKKFIPRLIESQSLDTDAVTGASVSSGAIKSIAEKAIKDAGGNNDEWHTPVTKKNDTVEKKDFDVIVVGLGGSGILSYCAAAKSGAKVFGLDIAAGIGGNSISTSGPMVVNSKIQSKKYNDGKDNIDPEDLYNTWIDYVKTDKKAAVIKKAIYEDGPALDYYMKNFGFSFDSPAFGMPAGYFPSFVRQDWTKEWAVYTAKDNKWYSAGQPVHIDQYQNALDKAKGMNPVNDYQLELAAKDFIKDDSGKVIGVKAVSYDGTTYNIYGRAVILASGGFVGNNQMMKDVYGHTCHTFGSTTAKGQGIKMGQSIGGNTYALRTLPMIHISQVPNIIRDDSLTPDQKATLSALAITSDAKQIDETGNILGSKDESGIEESKLTVGIAYAPGFHYFNAYTKEDLDKMKNEGVSETTSKVVVIILDQGGKVPAAHTPIKDIDKIVDEAIKHGDAWKGTPSELAKQLNMDEAKLTKSLGDPNKEYYLFEAAGYAYATCGGLDVDEDMNVLRQDGSKIENVFAVGQDSEGVENRNDEAYTPWGGQAQAWTFVSGKIAGENAAKILEHHHHHH”, the “soluble on expression in E. coli” value was “soluble”.

“GIVMTQTPASQSASLGESVTITCLASQTIGTWLAWYQQKPGKSPQLLIYAATSLADGVPSRFSGSGSGTKFSFKISSLQAEDFVSYYCQQLSSTPYTFGGGTKLEIKRADAAPTVSIFPPSSEQLTSGGASVVCFLNNFYPKDINVKWKIDGKERQNGVLNSWTDQDSKDSTYSMSSTLTLTKDEYERHNSYTCEATHKTSTSPIVKSFNRNE”: the “soluble on expression in E. coli” value is “soluble”.

For the sequence “MAMIKQILRLLFLLAMYELGKYVTEQVYIMMTANDDVEAPSDYVFRAEVSELEHHHHHH”, the “soluble on expression in E. coli” value is “not soluble”.
